Measurements: patent US20200031947A1

Biological target: cynomolgus GITR (cyGITR), soluble analyte (cynomolgus)
Assay: SPR (Biacore T200), 37 C; antibody captured on anti-human Fc chip, GITR as analyte; 1:1 Langmuir fit

- Kd: > 100 nM
- koff: 0.078 s⁻¹
- t1/2: 9 s
B1: h3G7 H1 (antibody, V domains shown)
VH: EVQLVESGGGLVQPGGSLRLSCAASGFTFSDYTMNWVRQAPGKGLEWVALINPYNGGIRYNQKFKGRFTISRDNAKNSLYLQMNSLRAEDTAVYYCARIGGYYDSMDYWGQGTLVTVSS
VL: DIQMTQSPSSLSASVGDRVTITCRASESVDNFGINFLNWYQQKPGKAPKLLIYAASNQGSGVPSRFSGSGSGTDFTLTISSLQPEDFATYYCQQSKELPWTFGGGTKVEIK
